From paper PMC6200327 (The Biochemical journal, 2018)

Target: the molecule itself
Test: crystal structure

B1: mouse RIG-I CARDs (residues 1-189), bacterially expressed (domain or fragment, UniProt Q6Q899 1-189, looked up)
chain: MTAEQRQNLQAFRDYIKKILDPTYILSYMSSWLEDEEVQYIQAEKNNKGPMEAASLFLQYLLKLQSEGWFQAFLDALYHAGYCGLCEAIESWDFQKIEKLEEHRLLLRRLEPEFKATVDPNDILSELSECLINQECEEIRQIRDTKGRMAGAEKMAECLIRSDKENWPKVLQLALEKDNSKFSELWIVD
- stoichiometry N: 4
